Source: patent publication US20070148163A1 (Kyowa Kirin, published 2007)
cellulose membrane = not defined here

Experiments:
Assay in all cases: SPOT peptide array (13-mers on cellulose membrane), Western-type detection, spot intensity by LumiImager
[1] = molecular target: T1, 20th of the 82 13-mer peptides covering the extracellular region of CD40 (cysteine pairing not given here; reading uncertain)
T1 construct: also called 20th peptide
T1 peptide: Ac-CLPCGESEFLDTW-{cellulose membrane}
Description: (§1) The reaction thereafter was carried out based on a conventional Western analysis (see Reineke, U. et al. (2001), “Epitope mapping with synthetic peptides prepared by SPOT synthesis.” Antibody Engineering (Springer Lab Manual) Eds.: Kontermann/Dubel, 433-459, for example). In the analysis, coloring intensity of each spot was quantified using Lumilmager™ (Boehringer-Mannheim Corp.) (FIG. 1A-1, 1A-2, 1B-1 and B-2).

[2] = molecular target: T2, 13th of the 82 13-mer peptides covering the extracellular region of CD40 (reading uncertain)
T2 construct: also called 13th peptide
T2 peptide: Ac-QKLVSDCTEFTET-{cellulose membrane}
Description: as §1

[3] = molecular target: T3, 14th of the 82 13-mer peptides covering the extracellular region of CD40 (cysteine pairing not given here; reading uncertain)
T3 construct: also called 14th peptide
T3 peptide: Ac-LVSDCTEFTETEC-{cellulose membrane}
Description: as §1

[4] = molecular target: T4, 15th of the 82 13-mer peptides covering the extracellular region of CD40 (cysteine pairing not given here; reading uncertain)
T4 construct: also called 15th peptide
T4 peptide: Ac-SDCTEFTETECLP-{cellulose membrane}
Description: as §1

[5] = molecular target: T5, 16th of the 82 13-mer peptides covering the extracellular region of CD40 (cysteine pairing not given here; reading uncertain)
T5 construct: also called 16th peptide
T5 peptide: Ac-CTEFTETECLPCG-{cellulose membrane}
Description: as §1

[6] = molecular target: T6, 12th of the 82 13-mer peptides covering the extracellular region of CD40 (reading uncertain)
T6 construct: also called 12th peptide
T6 peptide: Ac-PGQKLVSDCTEFT-{cellulose membrane}
Description: as §1

[7] = molecular target: T7, 21st of the 82 13-mer peptides covering the extracellular region of CD40 (reading uncertain)
T7 construct: also called 21st peptide
T7 peptide: Ac-PCGESEFLDTWNR-{cellulose membrane}
Description: as §1

[8] = molecular target: T8, 18th of the 82 13-mer peptides covering the extracellular region of CD40 (cysteine pairing not given here; reading uncertain)
T8 construct: also called 18th peptide
T8 peptide: Ac-TETECLPCGESEF-{cellulose membrane}
Description: as §1

[9] = molecular target: T9, 19th of the 82 13-mer peptides covering the extracellular region of CD40 (cysteine pairing not given here; reading uncertain)
T9 construct: also called 19th peptide
T9 peptide: Ac-TECLPCGESEFLD-{cellulose membrane}
Description: as §1

[10] = molecular target: T10, 64th of the 82 13-mer peptides covering the extracellular region of CD40 (reading uncertain)
T10 construct: also called 64th peptide
T10 peptide: Ac-PVGFFSNVSSAFE-{cellulose membrane}
Description: as §1

[11] = molecular target: T11, 17th of the 82 13-mer peptides covering the extracellular region of CD40 (cysteine pairing not given here; reading uncertain)
T11 construct: also called 17th peptide
T11 peptide: Ac-EFTETECLPCGES-{cellulose membrane}
Description: as §1

[12] = molecular target: T12, 22nd of the 82 13-mer peptides covering the extracellular region of CD40 (reading uncertain)
T12 construct: also called 22nd peptide
T12 peptide: Ac-GESEFLDTWNRET-{cellulose membrane}
Description: as §1

[13] = molecular target: T13, 23rd of the 82 13-mer peptides covering the extracellular region of CD40 (reading uncertain)
T13 construct: also called 23rd peptide
T13 peptide: Ac-SEFLDTWNRETHC-{cellulose membrane}
Description: as §1

Measured: binding result

B1: 2105 antibody (original IgG2) (antibody, V domains shown)
VH: EVQLVESGGGLVQPGRSLRLSCAASGFTFDDYAMHWVRQAPGKGLEWVSGISWNSGSLVHADSVKGRFTISRDNAKNSLYLQMNSLRAEDTALYYCARDRLFRGVRYYGMDVWGQGTTVTVSS
VL: EIVLTQSPATLSLSPGERATLSCRASQSVSSYLAWYQQKPGQAPRLLIYDASNRATGIPARFSGSGSGTDFTLTISSLEPEDFAVYYCQQRSHWLTFGGGTKVEIK
binds: all assays above
